Measured values reported in the supplement of paper PMC10567573.

B1: SNX8 (parent)
chain: LHQETQLIHVYLPLTSHILRAFVN

Variants of: B1
Assay: protein stability index of a GFP-peptide fusion (GPS, HEK-293T) (PSI 1-6); higher = more stable
Settings: c terminus: a fixed tail appended
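Also: lentivirally expressed fusions sorted by FACS into six bins by GFP to DsRed ratio, PSI derived from sequencing read proportions per bin multiplied by bin number.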

Variant | protein stability index
LHQETQLIHVYLPLTSAILRAFVN | 2.06
LHQETQLIHVYLPLTSFILRAFVN | 3.82
LHQETQLIHVYLPLTSCILRAFVN | 1.58
LHQETQLIHVYLPLTSYILRAFVN | 2.6
LHQETQLIHVYLPTTSHILRAFVN | 2.29
LHQETQLIHVYLPVTSHILRAFVN | 3.59
LHQETQLIHVYLPSTSHILRAFVN | 2
LHQETQLIHVYLPYTSHILRAFVN | 1.58
LHQETQLIHVYLPWTSHILRAFVN | 1.8
LHQETQLIHVYLPLTSHILRKFVN | 2.03
LHQETQLIHVYLPLTSHILREFVN | 2.48
LHQETQLIHVYLPLTSHILRCFVN | 2.73
LHQETQLIHVYLPLTSHILRWFVN | 2.18
LHQETQLIHVYLPLTSHILRTFVN | 1.84
LHQETQLIHVYLPLTSHILRIFVN | 3.77
LHQETQLIHVYLPLTSHILRDFVN | 2.8
LHQETQLIHVYLPLTSHILRPFVN | 2.84
LHQETQLIHVYLPLTSHILRMFVN | 3.49
LHQETQLIHVYLPLTSHILRNFVN | 3.01
LHQETQLIHVYLPLTSHILRFFVN | 1.38
LHQETQLIHVYLPLTSHILRRFVN | 2.63
LHQETQLIHVYLPLTSHILRQFVN | 2.01
LHQETQLIHVYLPLTSHILRYFVN | 2.35
LHQETQLIHVYLPLTSHILDAFVN | 1.93

Variant | protein stability index
LHQETQLIHVYLPLTSHILHAFVN | 2.95
LHQETQLIHVYLPLTSHILQAFVN | 1.89
LHQETQLIHVYLPLTSHILPAFVN | 3
LHQETQLIHVYLPLTSHILIAFVN | 2.9
LHQETQLIHVYLPLTSHILVAFVN | 1.72
LHQETQLIHVYLPLTSHILMAFVN | 3.04
LHQETQLIHVYLPLTSHILGAFVN | 3.27
LHQETQLIHVYLPLTSHILNAFVN | 3.03
LHQETQLIHVYLPLTSHILCAFVN | 2.94
LHQETQLIHVYLPLTSHILLAFVN | 3.82
LHQETQLIHVYLPLTSHILTAFVN | 1.72
LHQETQLIHVYLPLTSHILYAFVN | 3.11
LHQETQLIHVYLPLTSHILAAFVN | 3.61
LHQETQLIHVYLPLTSHISRAFVN | 2.3
LHQETQLIHVYLPLTSHICRAFVN | 2.66
LHQETQLIHVYLPLTSHIPRAFVN | 3.45
LHQETQLIHVYLPLTSHIQRAFVN | 5.08
LHQETQLIHVYLPLTSHIERAFVN | 2.23
LHQETQLIHVYLPLTSHIDRAFVN | 1.52
LHQETQLIHVYLPLTSHIHRAFVN | 2.24
LHQETQLIHVYLPLTSHINRAFVN | 1.99
LHQETQLIHVYLPLTSHIIRAFVN | 3.22
LHQETQLIHVYLPLTSHIVRAFVN | 4.01
LHQETQLIHVYLPLTSHIYRAFVN | 3.67

Variant | protein stability index
LHQETQLIHVYLPLTSHIWRAFVN | 1.57
LHQETQLIHVYLPLTSHIGRAFVN | 3.75
LHQETQLIHVYLPLTSHITRAFVN | 1.84
LHQETQLIHVYLPLTSHIKRAFVN | 2.47
LHQETQLIHVYLPLTSHIFRAFVN | 3.61
LHQETQLIHVYLPLTSHIARAFVN | 2.99
LHQETQLIHVYLPLTSHILRAFVL | 2.37
LHQETQLIHVYLPLTSHILRAFVS | 2.59
LHQETQLIHVYLPLTSHILRAFVH | 5.51
LHQETQLIHVYLPLTSHILRAFVV | 3.76
LHQETQLIHVYLPLTSHILRAFVA | 2.76
LHQETQLIHVYLPLTSHILRAFVF | 3.69
LHQETQLIHVYLPLTSHILRAFVD | 2.94
LHQETQLIHVYLPLTSHILRAFVT | 2.16
LHQETQLIHVYLPLTSHILRAFVQ | 2.93
LHQETQLIHVYLPLTSHILRAFVK | 2.06
LHQETQLIHVYLPLTSHILRAFVY | 2.88
LHQETQLIHVYLPLTSHILRANVN | 1.92
LHQETQLIHVYLPLTSHILRAPVN | 3.46
LHQETQLIHVYLPLTSHILRAKVN | 2.21
LHQETQLIHVYLPLTSHILRARVN | 2.4
LHQETQLIHVYLPLTSHILRALVN | 2.39
LHQETQLIHVYLPLTSHILRAQVN | 2.57
LHQETQLIHVYLPLTSHILRAMVN | 1.52

Variant | protein stability index
LHQETQLIHVYLPLTSHILRAIVN | 1.79
LHQETQLIHVYLPLTSHILRAGVN | 2.88
LHQETQLIHVYLPLTSHILRAYVN | 4.5
LHQETQLIHVYLPLTSHILRAHVN | 1.96
LHQETQLIHVYLPLTSHILRADVN | 2.12
LHQETQLIHVYLPLTSHILRAVVN | 2.75
LHQETQLIHVYLPLTSHILRASVN | 2.14
LHQETQLIHVYLPLTSHILRACVN | 3.79
LHQETQLIHVYLPLTSHILRAFLN | 2.22
LHQETQLIHVYLPLTSHILRAFYN | 3.02
LHQETQLIHVYLPLTSHILRAFQN | 2.27
LHQETQLIHVYLPLTSHILRAFIN | 1.96
LHQETQLIHVYLPLTSHILRAFFN | 2.14
LHQETQLIHVYLPLTSHILRAFTN | 3.16
LHQETQLIHVYLPLTSHILRAFMN | 2.4
LHQETQLIHVYLPLTSHILRAFPN | 2.03
LHQETQLIHVYLPLTSHILRAFDN | 2.39
LHQETQLIHVYLPLTSHILRAFHN | 2.58
LHQETQLIHVYLPLTSHILRAFSN | 2
LHQETQLIHVYLPLTSHILRAFAN | 3.31
LHQETQLIHVYLPLTSHILRAFEN | 2.79
LHQETQLIHVYLPLTSHILRAFWN | 3.24
